By IC50 is commonly meant the midpoint of a concentration-inhibition curve.

Our source for the IC50 values is CN111303278A (JANSSEN VACCINES & PREVENTION BV, dated 2020).

The target in this assay is Sym-1789. As to the kind of experiment: ELISA, biotinylated peptide on avidin plate, mAb titrated.

B1: CB030.1 (antibody, V domains shown)
VH: QVQLVQSGAEMKRPGSSVKVSCKASGGTFSTFAINWVRQAPGQGFEWMGGVIPGFDSANYAQKFQGRLTMSADESTSTVYMELSSLRSDDTAVYYCAGNSGYCSGDSCAPNWGPGTLVTVSS
VL: DIVMTQSPLSLPVTPGEPASISCRSSQSLVHSNGYSYLDWYLQKPGQSPQLLIYLGSNRPSGVPDRFSGSGSGTDFTLKISRVEAEDVGVYFCMQNLQTPTFGGGTKVEIK
Consider B1, for which the IC50 was around 0.02 µg/mL.

B2: CB017.5L (antibody, V domains shown)
VH: QVQLVESGGGVVQPGRSLRLSCSASGFTFSVYAMHWVRQAPGQGLEWVAIIWYDGSNKYYADSVKGRFTISRDNSKETLYLQMNSLRVEDTAVYYCARDPIVGHTRDGLDVWGQGTTVTVSS
VL: SYELTQPPSVSVSPGQTARVTCSGDAMAEQYTYWYQQKPGQAPVLIIFKDTERPSGIPERFSGSSSGTTVTLTISGVQTEDEADYYCQSTDSSGTSWVFGGGTKLTVL
Take B2: the IC50 is around 0.02 µg/mL.
